The series concerns Escherichia coli TOP10. Nature of the series: shrunken log2 fold change of peptide-encoding DNA abundance (4.5 h post-induction vs induction); higher = less antimicrobial activity (less host growth inhibition). The settings on record: time post-induction: 4.5 h; library: site-saturation at positions 5, 18, 19, 20.
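Further: peptides expressed intracellularly from a pBAD plasmid library in pooled LB shake-flask culture, induced with 0.3% L-arabinose, DNA abundance read by NGS, three biological replicates, DESeq2 with apeglm shrinkage.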

On to RRIRWRPPRLPRPRPRPFSKPRP, for which the “shrunken log2 fold change” value is -0.0531.

Turning to RRIRLRPPRLPRPRPRPQCYPRP, the “shrunken log2 fold change” value is -0.172.

RRIRIRPPRLPRPRPRPVCAPRP: the “shrunken log2 fold change” value is -0.0399.

As to RRIRQRPPRLPRPRPRPFPSPRP, the “shrunken log2 fold change” value was -0.0654.

With RRIRYRPPRLPRPRPRPEVMPRP, the “shrunken log2 fold change” value was found to be 0.00902.

For RRIRDRPPRLPRPRPRPFEWPRP, the “shrunken log2 fold change” value is 0.109.

Turning to RRIRVRPPRLPRPRPRPHMGPRP, the “shrunken log2 fold change” value was -0.302.

For the sequence RRIRHRPPRLPRPRPRPEFPPRP, the “shrunken log2 fold change” value was determined as 0.0962.

For the sequence RRIRKRPPRLPRPRPRPKGNPRP, the “shrunken log2 fold change” value is 0.325.

Turning to RRIRVRPPRLPRPRPRPCWWPRP, the “shrunken log2 fold change” value is 0.297.

As to RRIRDRPPRLPRPRPRPTYKPRP, the “shrunken log2 fold change” value is -0.529.

As to RRIRARPPRLPRPRPRPQWVPRP, the “shrunken log2 fold change” value is 0.124.

Turning to RRIRGRPPRLPRPRPRPQDDPRP, the “shrunken log2 fold change” value stood at 0.114.

For RRIRVRPPRLPRPRPRPIVWPRP, the “shrunken log2 fold change” value was -0.328.

On to RRIRSRPPRLPRPRPRPRMEPRP, for which the “shrunken log2 fold change” value came out at 0.0338.

Regarding RRIRARPPRLPRPRPRPSVYPRP, the “shrunken log2 fold change” value is -0.138.

Consider RRIRQRPPRLPRPRPRPDDWPRP, for which the “shrunken log2 fold change” value amounted to 0.0952.

As to RRIRGRPPRLPRPRPRPTSCPRP, the “shrunken log2 fold change” value was 0.401.

Consider RRIRWRPPRLPRPRPRPKEGPRP, for which the “shrunken log2 fold change” value is 0.538.

As for RRIRIRPPRLPRPRPRPKAFPRP, the “shrunken log2 fold change” value was -0.122.

Regarding RRIRLRPPRLPRPRPRPHNSPRP, the “shrunken log2 fold change” value was -0.492.

With RRIRPRPPRLPRPRPRPLFDPRP, the “shrunken log2 fold change” value was 0.0231.

As for RRIRPRPPRLPRPRPRPDGGPRP, the “shrunken log2 fold change” value was -0.129.

RRIRRRPPRLPRPRPRPLQKPRP: the “shrunken log2 fold change” value was determined as 0.44.

For RRIRDRPPRLPRPRPRPEFDPRP, the “shrunken log2 fold change” value was determined as 0.375.

As to RRIRTRPPRLPRPRPRPDRDPRP, the “shrunken log2 fold change” value is -0.126.

With RRIRDRPPRLPRPRPRPAKCPRP, the “shrunken log2 fold change” value came to 0.124.

On to RRIRSRPPRLPRPRPRPWAWPRP, for which the “shrunken log2 fold change” value is -0.131.

With RRIRERPPRLPRPRPRPNHLPRP, the “shrunken log2 fold change” value came out at 0.0486.

In the case of RRIRFRPPRLPRPRPRPMPAPRP, the “shrunken log2 fold change” value worked out at 0.283.

Turning to RRIRWRPPRLPRPRPRPNQVPRP, the “shrunken log2 fold change” value is 0.0796.

In the case of RRIRIRPPRLPRPRPRPLKMPRP, the “shrunken log2 fold change” value is -0.245.

On to RRIRVRPPRLPRPRPRPGYMPRP, for which the “shrunken log2 fold change” value is -0.37.

As to RRIRNRPPRLPRPRPRPRNHPRP, the “shrunken log2 fold change” value is -0.0174.

For RRIRVRPPRLPRPRPRPTRTPRP, the “shrunken log2 fold change” value was 0.495.

RRIRNRPPRLPRPRPRPPIPPRP: the “shrunken log2 fold change” value is -0.0646.

Regarding RRIRWRPPRLPRPRPRPLFNPRP, the “shrunken log2 fold change” value is -0.711.

Take RRIRRRPPRLPRPRPRPNDWPRP: the “shrunken log2 fold change” value was determined as 0.24.

Regarding RRIRERPPRLPRPRPRPLCGPRP, the “shrunken log2 fold change” value was -0.2.

RRIRCRPPRLPRPRPRPIVYPRP: the “shrunken log2 fold change” value is -0.788.

RRIRDRPPRLPRPRPRPAPKPRP: the “shrunken log2 fold change” value came to 0.0948.

With RRIRPRPPRLPRPRPRPPFNPRP, the “shrunken log2 fold change” value is -0.126.

Take RRIRWRPPRLPRPRPRPNNQPRP: the “shrunken log2 fold change” value is -0.494.

With RRIRDRPPRLPRPRPRPYIEPRP, the “shrunken log2 fold change” value is -0.0649.

Take RRIRPRPPRLPRPRPRPMIGPRP: the “shrunken log2 fold change” value was found to be 0.00964.

As to RRIRHRPPRLPRPRPRPVQPPRP, the “shrunken log2 fold change” value was -0.0332.

For RRIRIRPPRLPRPRPRPRSKPRP, the “shrunken log2 fold change” value was -0.251.

As to RRIRHRPPRLPRPRPRPMTYPRP, the “shrunken log2 fold change” value was -0.19.

As to RRIRIRPPRLPRPRPRPEEGPRP, the “shrunken log2 fold change” value is -0.05.

For the sequence RRIRFRPPRLPRPRPRPQTVPRP, the “shrunken log2 fold change” value was -0.211.

Regarding RRIRTRPPRLPRPRPRPVPKPRP, the “shrunken log2 fold change” value is 0.0251.

With RRIRMRPPRLPRPRPRPITYPRP, the “shrunken log2 fold change” value is -0.0199.

Regarding RRIRLRPPRLPRPRPRPINYPRP, the “shrunken log2 fold change” value was -0.857.

As to RRIRCRPPRLPRPRPRPDAQPRP, the “shrunken log2 fold change” value turned out to be 0.456.

On to RRIRARPPRLPRPRPRPVPCPRP, for which the “shrunken log2 fold change” value came to 0.341.

Regarding RRIRPRPPRLPRPRPRPSRKPRP, the “shrunken log2 fold change” value came out at 0.0349.

Take RRIRCRPPRLPRPRPRPQRRPRP: the “shrunken log2 fold change” value is -0.023.

Turning to RRIRIRPPRLPRPRPRPKDKPRP, the “shrunken log2 fold change” value is -0.747.

Regarding RRIRGRPPRLPRPRPRPDSHPRP, the “shrunken log2 fold change” value came to 0.0299.

For RRIRERPPRLPRPRPRPGVGPRP, the “shrunken log2 fold change” value is 0.428.

For the sequence RRIRVRPPRLPRPRPRPCFGPRP, the “shrunken log2 fold change” value was -0.263.

Regarding RRIRRRPPRLPRPRPRPRGVPRP, the “shrunken log2 fold change” value was determined as 0.816.

For RRIRWRPPRLPRPRPRPSHLPRP, the “shrunken log2 fold change” value is -0.517.

As to RRIRERPPRLPRPRPRPLYLPRP, the “shrunken log2 fold change” value was -0.77.

With RRIRARPPRLPRPRPRPLCHPRP, the “shrunken log2 fold change” value came out at 0.173.

Turning to RRIRRRPPRLPRPRPRPKSSPRP, the “shrunken log2 fold change” value is -0.00897.

With RRIRSRPPRLPRPRPRPFLCPRP, the “shrunken log2 fold change” value is -0.634.

Regarding RRIRNRPPRLPRPRPRPLWRPRP, the “shrunken log2 fold change” value is 0.179.

In the case of RRIRNRPPRLPRPRPRPQNYPRP, the “shrunken log2 fold change” value is -0.846.

On to RRIRMRPPRLPRPRPRPRFMPRP, for which the “shrunken log2 fold change” value amounted to 0.385.

Regarding RRIRQRPPRLPRPRPRPWAFPRP, the “shrunken log2 fold change” value was -0.000467.

Consider RRIRLRPPRLPRPRPRPWKCPRP, for which the “shrunken log2 fold change” value was -0.391.

For the sequence RRIRNRPPRLPRPRPRPLSFPRP, the “shrunken log2 fold change” value is -0.387.

RRIRGRPPRLPRPRPRPTTGPRP: the “shrunken log2 fold change” value came to 0.418.

Regarding RRIRCRPPRLPRPRPRPTQDPRP, the “shrunken log2 fold change” value worked out at 0.805.

With RRIRSRPPRLPRPRPRPQRVPRP, the “shrunken log2 fold change” value is -0.00684.

As for RRIRCRPPRLPRPRPRPDTTPRP, the “shrunken log2 fold change” value stood at 0.00602.

Regarding RRIRHRPPRLPRPRPRPPYGPRP, the “shrunken log2 fold change” value amounted to 0.0267.

Turning to RRIRARPPRLPRPRPRPHPRPRP, the “shrunken log2 fold change” value was determined as 0.696.

Consider RRIRERPPRLPRPRPRPTDDPRP, for which the “shrunken log2 fold change” value is -0.00106.

For RRIRRRPPRLPRPRPRPLYSPRP, the “shrunken log2 fold change” value was -0.0185.

For RRIRSRPPRLPRPRPRPYTVPRP, the “shrunken log2 fold change” value is -0.676.

On to RRIRFRPPRLPRPRPRPGCLPRP, for which the “shrunken log2 fold change” value was -0.0626.

Regarding RRIRCRPPRLPRPRPRPHRLPRP, the “shrunken log2 fold change” value was -0.227.

RRIRLRPPRLPRPRPRPPITPRP: the “shrunken log2 fold change” value is -0.213.

Consider RRIRWRPPRLPRPRPRPYPTPRP, for which the “shrunken log2 fold change” value was -0.281.

RRIRGRPPRLPRPRPRPCPCPRP: the “shrunken log2 fold change” value is -0.0469.

Turning to RRIRRRPPRLPRPRPRPPWVPRP, the “shrunken log2 fold change” value stood at 0.535.

With RRIRFRPPRLPRPRPRPETWPRP, the “shrunken log2 fold change” value stood at 0.0692.

Turning to RRIRQRPPRLPRPRPRPMLTPRP, the “shrunken log2 fold change” value was -0.185.

Turning to RRIRWRPPRLPRPRPRPYVMPRP, the “shrunken log2 fold change” value is -0.511.

As for RRIRMRPPRLPRPRPRPKEFPRP, the “shrunken log2 fold change” value came to 0.103.

For the sequence RRIRIRPPRLPRPRPRPEFLPRP, the “shrunken log2 fold change” value was -0.0199.

As to RRIRPRPPRLPRPRPRPDRMPRP, the “shrunken log2 fold change” value is -0.234.

Consider RRIRHRPPRLPRPRPRPQINPRP, for which the “shrunken log2 fold change” value is -0.827.

As for RRIRARPPRLPRPRPRPKIVPRP, the “shrunken log2 fold change” value was -0.0715.

Consider RRIRTRPPRLPRPRPRPTHGPRP, for which the “shrunken log2 fold change” value came to 0.0213.

Turning to RRIRNRPPRLPRPRPRPCMPPRP, the “shrunken log2 fold change” value was -0.549.

As to RRIRYRPPRLPRPRPRPWWTPRP, the “shrunken log2 fold change” value is -0.333.

Regarding RRIRWRPPRLPRPRPRPKRDPRP, the “shrunken log2 fold change” value amounted to 0.696.

RRIRKRPPRLPRPRPRPHYAPRP: the “shrunken log2 fold change” value is -0.0144.

As for RRIRHRPPRLPRPRPRPQLTPRP, the “shrunken log2 fold change” value was -0.261.

Consider RRIRNRPPRLPRPRPRPMHFPRP, for which the “shrunken log2 fold change” value is -0.145.

For the sequence RRIRFRPPRLPRPRPRPEGVPRP, the “shrunken log2 fold change” value was -0.175.

On to RRIRNRPPRLPRPRPRPPCSPRP, for which the “shrunken log2 fold change” value is -0.327.

Turning to RRIRSRPPRLPRPRPRPATRPRP, the “shrunken log2 fold change” value was 0.415.

For RRIRIRPPRLPRPRPRPQDDPRP, the “shrunken log2 fold change” value stood at 0.0213.

On to RRIRHRPPRLPRPRPRPVWHPRP, for which the “shrunken log2 fold change” value turned out to be 0.0453.

As for RRIRRRPPRLPRPRPRPPDGPRP, the “shrunken log2 fold change” value is 0.326.

On to RRIRLRPPRLPRPRPRPTLRPRP, for which the “shrunken log2 fold change” value was found to be 0.161.

Regarding RRIRMRPPRLPRPRPRPHNYPRP, the “shrunken log2 fold change” value is -0.0828.

As to RRIRQRPPRLPRPRPRPPCVPRP, the “shrunken log2 fold change” value is 0.214.

As for RRIRVRPPRLPRPRPRPDHDPRP, the “shrunken log2 fold change” value is -0.485.

Regarding RRIRGRPPRLPRPRPRPRGQPRP, the “shrunken log2 fold change” value worked out at 0.803.

For the sequence RRIRQRPPRLPRPRPRPKWKPRP, the “shrunken log2 fold change” value was -0.0193.

Turning to RRIRLRPPRLPRPRPRPIDRPRP, the “shrunken log2 fold change” value is -0.241.

Take RRIRRRPPRLPRPRPRPSIRPRP: the “shrunken log2 fold change” value was -0.219.

With RRIRQRPPRLPRPRPRPTWGPRP, the “shrunken log2 fold change” value was 0.168.

For RRIRTRPPRLPRPRPRPKPWPRP, the “shrunken log2 fold change” value came to 0.363.

As for RRIRSRPPRLPRPRPRPIKDPRP, the “shrunken log2 fold change” value was -0.224.

As for RRIRWRPPRLPRPRPRPGQYPRP, the “shrunken log2 fold change” value is 0.0716.

In the case of RRIRNRPPRLPRPRPRPTRAPRP, the “shrunken log2 fold change” value stood at 0.683.

As for RRIRQRPPRLPRPRPRPTSIPRP, the “shrunken log2 fold change” value was -0.18.

With RRIRHRPPRLPRPRPRPYMAPRP, the “shrunken log2 fold change” value was -0.339.

Consider RRIRWRPPRLPRPRPRPLCAPRP, for which the “shrunken log2 fold change” value is 0.776.
